In article PMC10681739, “High-throughput data and modeling reveal insights into the mechanisms of cooperative DNA-binding by transcription factor proteins”:

T1: ETS1 (Homo sapiens, UniProt P14921)
T1 sequence: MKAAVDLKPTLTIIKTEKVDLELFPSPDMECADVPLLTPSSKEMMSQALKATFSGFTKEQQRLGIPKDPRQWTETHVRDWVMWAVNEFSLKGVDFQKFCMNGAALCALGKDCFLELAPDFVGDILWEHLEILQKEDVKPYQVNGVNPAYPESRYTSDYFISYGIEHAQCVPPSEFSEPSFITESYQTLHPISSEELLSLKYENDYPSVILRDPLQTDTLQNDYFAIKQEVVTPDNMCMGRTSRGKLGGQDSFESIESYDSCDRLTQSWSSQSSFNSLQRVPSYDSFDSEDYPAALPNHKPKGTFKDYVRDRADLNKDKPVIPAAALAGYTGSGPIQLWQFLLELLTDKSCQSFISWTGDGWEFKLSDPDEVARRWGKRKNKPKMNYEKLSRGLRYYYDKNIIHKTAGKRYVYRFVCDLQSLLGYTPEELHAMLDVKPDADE

B1: Table S2 B row 1497 (dsDNA)
DNA 1: CAACACAGGATGTGCAGTATTATACGGCAAAGCACT
DNA 2: AGTGCTTTGCCGTATAATACTGCACATCCTGTGTTG
B2: Table S2 B row 2465 (dsDNA)
DNA 1: CTACGACTTCCGTGATGCCTTACGGTTGCTGTAGCC
DNA 2: GGCTACAGCAACCGTAAGGCATCACGGAAGTCGTAG
B3: Table S2 B row 2744 (dsDNA)
DNA 1: TTAGCACATCCTGGGTACACAGAGCACAGCCTCCTC
DNA 2: GAGGAGGCTGTGCTCTGTGTACCCAGGATGTGCTAA
B4: Table S2 B row 2699 (dsDNA)
DNA 1: CTCAGGAATGCGGAAGTGCTCTGTGAGCACCCACCA
DNA 2: TGGTGGGTGCTCACAGAGCACTTCCGCATTCCTGAG
B5: Table S2 B row 1396 (dsDNA)
DNA 1: GAGGAGGAAAGCGGAAGCGCTGCCCTCAGTGGTAGG
DNA 2: CCTACCACTGAGGGCAGCGCTTCCGCTTTCCTCCTC
B6: Table S2 B row 3959 (dsDNA)
DNA 1: AAGGGCAAAGTCACAGCCACTTCCGCCCAGCGCTTC
DNA 2: GAAGCGCTGGGCGGAAGTGGCTGTGACTTTGCCCTT
B7: Table S2 B row 3968 (dsDNA)
DNA 1: GCCGCCGTTTCCTGATTGGTCGTGGGTGGCTACCTC
DNA 2: GAGGTAGCCACCCACGACCAATCAGGAAACGGCGGC
B8: Table S2 B row 2829 (dsDNA)
DNA 1: AGTGTCCGCCGCTTCCTGGTTGCGCGTCAGCGCCCA
DNA 2: TGGGCGCTGACGCGCAACCAGGAAGCGGCGGACACT
B9: Table S2 B row 717 (dsDNA)
DNA 1: AATCCCGGAAACGCGGATTCAGCGGAGCGCGGCGAC
DNA 2: GTCGCCGCGCTCCGCTGAATCCGCGTTTCCGGGATT
B10: Table S2 B row 771 (dsDNA)
DNA 1: AACAGGAAGTGGTCTTAGAGATCATGGGGTTCAGAG
DNA 2: CTCTGAACCCCATGATCTCTAAGACCACTTCCTGTT
B11: Table S2 B row 559 (dsDNA)
DNA 1: GCAGCATTTCCTGACTTCTTCGCCCCTGTCGTTGCA
DNA 2: TGCAACGACAGGGGCGAAGAAGTCAGGAAATGCTGC
B12: Table S2 B row 1777 (dsDNA)
DNA 1: CCTTCCTTCCGCTGGCAGTAACTAGGCAGTGGACAC
DNA 2: GTGTCCACTGCCTAGTTACTGCCAGCGGAAGGAAGG
B13: Table S2 B row 1656 (dsDNA)
DNA 1: CTCTGAGCAGGAAGTGACAAATCCACGCAGGGCAGG
DNA 2: CCTGCCCTGCGTGGATTTGTCACTTCCTGCTCAGAG
B14: Table S2 B row 3031 (dsDNA)
DNA 1: CCCGGGGGCAGGAAATGTCGCCTTACCCTCAGCCTT
DNA 2: AAGGCTGAGGGTAAGGCGACATTTCCTGCCCCCGGG
B15: Table S2 B row 2356 (dsDNA)
DNA 1: CTTCTTCCTGCTGAGACTGATACAGCCCGAAAAGCT
DNA 2: AGCTTTTCGGGCTGTATCAGTCTCAGCAGGAAGAAG
B16: Table S2 B row 1677 (dsDNA)
DNA 1: TGTTTTTGTTTCCGTTTACAAACTACAACAAAGGTG
DNA 2: CACCTTTGTTGTAGTTTGTAAACGGAAACAAAAACA
B17: Table S2 B row 2489 (dsDNA)
DNA 1: CCTTCCTTCCTGCTGTGTACGTTGGGGTCACAGCAC
DNA 2: GTGCTGTGACCCCAACGTACACAGCAGGAAGGAAGG
B18: Table S2 B row 1459 (dsDNA)
DNA 1: CAGATCCGGCGTGGACGAAGCTCGGGAACTACAACA
DNA 2: TGTTGTAGTTCCCGAGCTTCGTCCACGCCGGATCTG
B19: Table S2 B row 3837 (dsDNA)
DNA 1: CTGCTTCCGGCCCCGGGGTTCGCTACCCCAAAATCC
DNA 2: GGATTTTGGGGTAGCGAACCCCGGGGCCGGAAGCAG
B20: Table S2 B row 3173 (dsDNA)
DNA 1: GACTGCACTTCCTCTGCTTCGAGGTCGGTGCTTAGC
DNA 2: GCTAAGCACCGACCTCGAAGCAGAGGAAGTGCAGTC
B21: Table S2 B row 1434 (dsDNA)
DNA 1: GGCCGGAAGCGCTCTCGTTGGCCCAGCGGCGCTGGA
DNA 2: TCCAGCGCCGCTGGGCCAACGAGAGCGCTTCCGGCC
B22: Table S2 B row 1623 (dsDNA)
DNA 1: ACATTTCCGTTCAGCTCAGTGTTCACGGTGCGAGAC
DNA 2: GTCTCGCACCGTGAACACTGAGCTGAACGGAAATGT
B23: Table S2 B row 3759 (dsDNA)
DNA 1: AGCGGCTCCTTCCGGCGGCGCCGGTTCCCTTCCCTC
DNA 2: GAGGGAAGGGAACCGGCGCCGCCGGAAGGAGCCGCT
B24: Table S2 B row 1859 (dsDNA)
DNA 1: GTGAACTTCCTCCCCCACTGCCTATTTTTACAGCAG
DNA 2: CTGCTGTAAAAATAGGCAGTGGGGGAGGAAGTTCAC
B25: Table S2 B row 2667 (dsDNA)
DNA 1: GGGATCTACTTCCTCTCTCGGCCTCGGGCGCTGCAC
DNA 2: GTGCAGCGCCCGAGGCCGAGAGAGGAAGTAGATCCC
B26: Table S2 B row 2565 (dsDNA)
DNA 1: AGCCACATCCTGGACAAAAGCTGTTGTCTAGTAACC
DNA 2: GGTTACTAGACAACAGCTTTTGTCCAGGATGTGGCT
B27: Table S2 B row 2874 (dsDNA)
DNA 1: TGAGCAAGTTCCTTCCTGTCTGTGCTCCAGGGTTTA
DNA 2: TAAACCCTGGAGCACAGACAGGAAGGAACTTGCTCA
B28: Table S2 B row 3063 (dsDNA)
DNA 1: GTATCACTTCCTGTTTTCCTCTGTAGCTTACTGCTG
DNA 2: CAGCAGTAAGCTACAGAGGAAAACAGGAAGTGATAC
B29: Table S2 B row 3509 (dsDNA)
DNA 1: CATGAGAAACATCCTGCCCAACAACCTGACTACAAG
DNA 2: CTTGTAGTCAGGTTGTTGGGCAGGATGTTTCTCATG
B30: Table S2 B row 980 (dsDNA)
DNA 1: GCGGGCGGAAGTGCCGAGGTTGTACCTCGGCGCTGG
DNA 2: CCAGCGCCGAGGTACAACCTCGGCACTTCCGCCCGC
B31: Table S2 B row 1297 (dsDNA)
DNA 1: CCTAGAACCGGAAGAGAAAGGGGCTGGGGTGCAGCA
DNA 2: TGCTGCACCCCAGCCCCTTTCTCTTCCGGTTCTAGG
B32: Table S2 B row 785 (dsDNA)
DNA 1: ATAGTCTCTTCCTGTGTTGCAAATCACAGGTCCACC
DNA 2: GGTGGACCTGTGATTTGCAACACAGGAAGAGACTAT

What follows are binders tested against T1, ETS1 (assay: gcPBM; 1 nM ETS1). Conditions: tags: N-terminal GST (pDEST15), kept (PMC6008103); label: surface-attached array probe.
With B1 the binding signal was 6480 PBM fluorescence, median of replicate spots.
For B2, the binding signal was 7160 PBM fluorescence, median of replicate spots.
With B3 the binding signal was 5610 PBM fluorescence, median of replicate spots.
In the case of B4, the binding signal is reported as 4940 PBM fluorescence, median of replicate spots.
In the case of B5, the binding signal is reported as 4360 PBM fluorescence, median of replicate spots.
In the case of B6, the binding signal is reported as 7470 PBM fluorescence, median of replicate spots.
B7 was tested, and the binding signal was 4470 PBM fluorescence, median of replicate spots.
B8 was tested, and the binding signal was 5900 PBM fluorescence, median of replicate spots.
For B9, the binding signal was 7670 PBM fluorescence, median of replicate spots.
For B10, the binding signal was 7400 PBM fluorescence, median of replicate spots.
For B11, the binding signal was 6900 PBM fluorescence, median of replicate spots.
B12 was tested, and the binding signal was 5510 PBM fluorescence, median of replicate spots.
In the case of B13, the binding signal is reported as 6750 PBM fluorescence, median of replicate spots.
B14 was tested, and the binding signal was 4680 PBM fluorescence, median of replicate spots.
B15 was tested, and the binding signal was 6230 PBM fluorescence, median of replicate spots.
With B16 the binding signal was 5730 PBM fluorescence, median of replicate spots.
For B17, the binding signal was 5450 PBM fluorescence, median of replicate spots.
In the case of B18, the binding signal is reported as 5020 PBM fluorescence, median of replicate spots.
With B19 the binding signal was 27500 PBM fluorescence, median of replicate spots.
With B20 the binding signal was 6100 PBM fluorescence, median of replicate spots.
B21 was tested, and the binding signal was 6040 PBM fluorescence, median of replicate spots.
For B22, the binding signal was 32300 PBM fluorescence, median of replicate spots.
With B23 the binding signal was 6670 PBM fluorescence, median of replicate spots.
B24 was tested, and the binding signal was 4830 PBM fluorescence, median of replicate spots.
For B25, the binding signal was 6350 PBM fluorescence, median of replicate spots.
With B26 the binding signal was 7070 PBM fluorescence, median of replicate spots.
For B27, the binding signal was 5140 PBM fluorescence, median of replicate spots.
With B28 the binding signal was 30200 PBM fluorescence, median of replicate spots.
For B29, the binding signal was 5340 PBM fluorescence, median of replicate spots.
For B30, the binding signal was 4750 PBM fluorescence, median of replicate spots.
In the case of B31, the binding signal is reported as 4610 PBM fluorescence, median of replicate spots.
In the case of B32, the binding signal is reported as 7860 PBM fluorescence, median of replicate spots.
